Laboratory results reported in publication PMC9902655.
“And” between values parts separate entries of the source, which are not always exact repeats. Equal entries are not always repeated.

Target: human adiponectin (ADPN) from egg white of OVA ADPN knock-in chickens (human) (UniProt Q15848)
Experiment: non-reducing SDS-PAGE and Western blot; crude egg white of KI hens 0090 and 0141, diluted, in RIPA buffer and Laemmli sample buffer, 95°C 5 min, 10% gel, non-reducing; anti-adiponectin blot; under reducing conditions the multimer bands decreased and the monomer band increased

human adiponectin (ADPN) from egg white of OVA ADPN knock-in chickens (from UniProt Q15848 19-244) (natural protein)
stoichiometry N: 3 and 6
